Laboratory results: patent publication US20240240209A1, “SYNTHESIS OF ENANTIOPURE CIS-A-IRONE FROM A RENEWABLE CARBON SOURCE” (Agency for Science, Technology and Research, priority 2021, published 2024)
Residue numbers refer to the chain shown, from its start. Names may count otherwise. Each block holds one molecule with its values, some of them ahead of it.

How the values were obtained:
[1] = Cell lysate reaction of pMT enzymes with psi-ionone, irones quantified by HS-SPME-GCMS; type: biochemical; conditions: for fold change in cis-α-irone produced: AUC vs non-mutated (=1)
Procedure, shortened: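 pMT1 site-saturation mutants were expressed in E. coli BL21(DE3) and lysed, and lysates were incubated 2 days at 28 °C with 0.2 mM SAM and 10 mg/L psi-ionone (plus caryophyllene) in 50 mM Tris pH 7, 10 mM MgCl2. Cis-α-irone was measured by HS-SPME-GCMS peak area and given as fold change over non-mutated enzyme.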

[2] = Purified pMT7/pMT10 reaction with auxiliary enzymes mtn and mtaD; type: biochemical; conditions: for cis-α-irone amount relative to pMT7 reaction alone: purified enzyme
From the text: All the purified enzyme reactions were done in triplicates.
An alternative strategy to reduce SAH inhibition is to introduce auxiliary enzymes that degrade SAH12 (FIG. 18a). […] Noteworthy, with mtaD enzyme, cis-α-irone production by pMT10 was improved by ˜2.5 fold as compared to pMT10 reaction alone (FIG. 3c). […] This somewhat agrees with the effect of mutating D135, which abolishes the hydrogen bond interaction between pMT7 and the amine group of the adenine moiety.

B1: pMT7: pMT1 with Y200F S182E L273V L180A A202L Y65F (protein)
chain: MPQEARTPQQQVTADEVGDWYDKFGEVYHLTLGESVHCGLWFPPDAPVPQDMELVTMSSQAQDRFTDYLIETLDPKAGQHLLDIGCGTGRTALKAARQRGIAVTGVAVSKEQIAAANRLAAGHGLTERLTFEVADAMRLPYEDESFDCAWAIESLCHMDRAKALGEAWRVLKPGGDLLVAEEVVTEELTEPETALFETLFALNVPPRLGEFFDIVSGAGFHTLSLKDLSANLAMTMNVFALGVYSRRAEFTERFGAEFVDGLLAGLGSAQETVIRKTRFFMATLRKPAV
modifications: Modified from pMT1
notes: pMT1 with Y200F S182E L273V L180A A202L Y65F
cis-α-irone production ([1]; higher as compared to pMT1): 2,450 fold
fold change in cis-α-irone produced ([1]; pMT6_Y65 mutants): 1.4
fold change in cis-α-irone produced ([1]; pMT7_T91 mutants): 1.0
improvement of total turnover number (TTN) ([1]; vs pMT1, TTN = cis-α-irone produced / soluble pMT enzyme): 2,000 fold

cis-α-irone production improvement with mtaD enzyme ([2]; as compared to pMT10 reaction alone): ~2.5 fold
cis-α-irone amount relative to pMT7 reaction alone ([2]; with mtaD): ~6.5 fold
cis-α-irone amount relative to pMT7 reaction alone ([2]; without mtaD): ~4.5 fold
B2: pMT10: pMT1 with Y200F S182E L273V L180A A202L Y65F C156A T91P (protein)
chain: B1 chain with T91P, C156A
modifications: Modified from pMT1
notes: pMT1 with Y200F S182E L273V L180A A202L Y65F C156A T91P
